Source: publication PMC5095980

Biological target: Human lactoferrin (human)
Test: small angle neutron scattering (SANS); iron containing samples in solution, 7 °C: iron saturated Lf (L3770; 100 mM MES, 150 mM NaCl, D2O) at pD 5 and pD 7, and partially saturated Lf (L3770 in the EDTA buffer, pD 5); concentration series 2.5-50 mg/ml, form factor extrapolated to c = 0, aggregates modelled by a Guinier term added to the monomer form factor

## Human lactoferrin (natural protein)
  stoichiometry N: 10 monomers
